From PMC8263776, “Calmodulin-dependent KCNE4 dimerization controls membrane targeting” (Scientific Reports, 2021) come the findings set out here.

Data set [1] concerns the molecule itself. In words: counting of GFP bleaching steps of single spots (TIRF microscopy); loopBAD-GFP proteins biotinylated by BirA on HEK-293 cells, immobilised through neutravidin on biotinylated glass; bleaching steps counted per spot.
Data set [2] concerns the molecule itself. In words: cross-linking; HEK-293 lysates (50 mM boric acid, 100 mM K acetate, 2 mM MgCl2, 1 mM EGTA, 1% Triton X-100, pH 8.5) with or without 5 mM DMP for 1 h; 7% SDS-PAGE, immunoblot against CFP. (In western blotting, separated proteins are transferred to a membrane and probed.)

B1: KCNE4-loopBAD-GFP (natural protein, mouse, UniProt Q9WTW3 1-170, looked up)
chain: MLRMEPLNSTYPSAAASSSPLESHVPSNSSGNGNEYFYILVVMSFYGVFLIGIMLGYMKSKRREKKSSLLLLYKDEERLWGEAMKPLPMMSGLRSGQVPMMLNMLQESVAPALSCTLCSMEGDSVSSESSSPDVHLPIQEEGADDELEETSETPLNDSSEGSSENIHQNS
modifications: biotin on the loopBAD tag (BirA co-expressed)
notes: KCNE4, mouse (mKCNE4), UniProtKB Q9WTW3; KCNE4-GFP with a loopBAD tag introduced at an NruI restriction site; source: HEK-293, electroporated with BirA, on the cell surface
Usually stoichiometry N stands for a count of units in the complex or per binding partner. As for B1, in data set [1], the “stoichiometry N” value was found to be 2.

B2: Kv1.3-CFP (natural protein, rat, UniProt P15384 1-525, looked up)
chain: MTVVPGDHLLEPEAAGGGGGDPPQGGCVSGGGCDRYEPLPPALPAAGEQDCCGERVVINISGLRFETQLKTLCQFPETLLGDPKRRMRYFDPLRNEYFFDRNRPSFDAILYYYQSGGRIRRPVNVPIDIFSEEIRFYQLGEEAMEKFREDEGFLREEERPLPRRDFQRQVWLLFEYPESSGPARGIAIVSVLVILISIVIFCLETLPEFRDEKDYPASPSQDVFEAANNSTSGASSGASSFSDPFFVVETLCIIWFSFELLVRFFACPSKATFSRNIMNLIDIVAIIPYFITLGTELAERQGNGQQAMSLAILRVIRLVRVFRIFKLSRHSKGLQILGQTLKASMRELGLLIFFLFIGVILFSSAVYFAEADDPSSGFNSIPDAFWWAVVTMTTVGYGDMHPVTIGGKIVGSLCAIAGVLTIALPVPVIVSNFNYFYHRETEGEEQAQYMHVGSCQHLSSSAEELRKARSNSTLSKSEYMVIEEGGMNHSAFPQTPFKTGNSTATCTTNNNPNSCVNIKKIFTDV
notes: Kv1.3, rat (rKv1.3), subcloned from pRcCMV into pECFP-C1; pECFP-C1 is surmised to put CFP at the N-terminus of the insert; source: HEK-293, transfected; in lysate (cross-linking) or in fixed cells (FRET)
In the case of B2, in data set [2], the “stoichiometry N” value stood at 4.

B3: Kv1.3-loopBAD-GFP (natural protein, rat, UniProt P15384 1-525, looked up)
chain: MTVVPGDHLLEPEAAGGGGGDPPQGGCVSGGGCDRYEPLPPALPAAGEQDCCGERVVINISGLRFETQLKTLCQFPETLLGDPKRRMRYFDPLRNEYFFDRNRPSFDAILYYYQSGGRIRRPVNVPIDIFSEEIRFYQLGEEAMEKFREDEGFLREEERPLPRRDFQRQVWLLFEYPESSGPARGIAIVSVLVILISIVIFCLETLPEFRDEKDYPASPSQDVFEAANNSTSGASSGASSFSDPFFVVETLCIIWFSFELLVRFFACPSKATFSRNIMNLIDIVAIIPYFITLGTELAERQGNGQQAMSLAILRVIRLVRVFRIFKLSRHSKGLQILGQTLKASMRELGLLIFFLFIGVILFSSAVYFAEADDPSSGFNSIPDAFWWAVVTMTTVGYGDMHPVTIGGKIVGSLCAIAGVLTIALPVPVIVSNFNYFYHRETEGEEQAQYMHVGSCQHLSSSAEELRKARSNSTLSKSEYMVIEEGGMNHSAFPQTPFKTGNSTATCTTNNNPNSCVNIKKIFTDV
modifications: biotin on the loopBAD tag (BirA co-expressed)
notes: Kv1.3, rat (rKv1.3); GFP-Kv1.3 with a loopBAD tag introduced at an NruI restriction site; source: HEK-293, electroporated with BirA, on the cell surface
In the case of B3, in data set [1], the “stoichiometry N” value stood at 4.
